Where two headings read alike, the source gives them in different places. Each block holds one binder with its values, some of them ahead of it. Where no end group is shown, it is not given here.
Key:
[1] = biological target: T1, IL-18Rα-Fc (CD218a protein, Fc tag; ECD 19-329; ACROBiosystems, Inc, Cat. No. IL1-H5259) (UniProt Q13478 19-329); experiment: ELISA
T1 chain: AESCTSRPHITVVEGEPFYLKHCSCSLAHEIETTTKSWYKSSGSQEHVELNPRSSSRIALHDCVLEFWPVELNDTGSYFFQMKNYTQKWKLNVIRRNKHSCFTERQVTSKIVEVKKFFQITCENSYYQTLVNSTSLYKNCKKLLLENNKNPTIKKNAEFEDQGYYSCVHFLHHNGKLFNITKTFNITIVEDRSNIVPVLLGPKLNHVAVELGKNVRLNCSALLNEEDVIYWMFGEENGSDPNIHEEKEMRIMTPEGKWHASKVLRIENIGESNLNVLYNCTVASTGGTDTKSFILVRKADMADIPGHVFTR

[2] = biological target: T1, IL-18Rα-Fc (CD218a protein, Fc tag; ECD …); experiment: ELISA
[3] = biological target: T1, IL-18Rα-Fc (CD218a protein, Fc tag; ECD …); experiment: competition ELISA; tracer 7C06(bn1713)/NA-HRP 75 nM
[4] = biological target: T1, IL-18Rα-Fc (CD218a protein, Fc tag; ECD …); experiment: competition ELISA

Binder: GGFFECFYSPGHEWCIPSGG [7C06]
- IC50 [3]: 350 nM

Binder: GGREDMECFWSPGQVWCIPSYLGG [10D09]
- IC50 [4]: 11 nM

Binder: GGICWVPFHYLDELMCTGG-biotin (cysteine pairing not given here) [biotinylated 4D07]
- EC50 [2]: 0.16 nM

Further lines, results first:

- EC50 [1]: 0.11 nM
Binder: GGELCWRPFSFVDCEEGG-biotin (cysteine pairing not given here) [biotinylated alpha synthetic F1a Consensus Construct]

- EC50 [2]: 0.26 nM
Binder: GGFFECFYSPGHEWCIPSGG-biotin (cysteine pairing not given here) [biotinylated 7C06]

From patent US20240158457A1 (published 2024)
